T1: LAIR1 on LAIR1 reporter cells (human, UniProt Q6GTX8 22-165, limits assumed)
T1 chain: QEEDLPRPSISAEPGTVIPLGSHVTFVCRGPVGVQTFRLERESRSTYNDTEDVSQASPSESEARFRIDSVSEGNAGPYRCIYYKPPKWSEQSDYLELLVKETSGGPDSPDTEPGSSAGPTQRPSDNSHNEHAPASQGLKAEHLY

T2: human LAIR1 extracellular domain (ECD) protein with 6 HIS tag at the C-terminus (human, UniProt Q6GTX8 22-165)
T2 construct: Produced recombinantly in HEK293 cells; the whole entry is named here; also called LAIR1 ECD; LAIR1-ECD
T2 chain: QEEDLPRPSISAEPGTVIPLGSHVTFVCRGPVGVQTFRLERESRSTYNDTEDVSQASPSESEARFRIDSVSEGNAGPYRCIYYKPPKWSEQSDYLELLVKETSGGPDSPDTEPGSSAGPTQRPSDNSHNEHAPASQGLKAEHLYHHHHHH

T3: recombinant LAIR1 (human, UniProt Q6GTX8 22-165, limits assumed)
T3 construct: also called LAIR1 (Octet analyte)
T3 chain: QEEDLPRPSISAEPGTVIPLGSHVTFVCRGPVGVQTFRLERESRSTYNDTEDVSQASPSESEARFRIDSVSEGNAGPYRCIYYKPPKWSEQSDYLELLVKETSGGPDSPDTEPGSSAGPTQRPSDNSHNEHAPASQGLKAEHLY


Legend:
[1] = target: T1, LAIR1 on LAIR1 reporter cells
[2] = target: T1, LAIR1 on LAIR1 reporter cells
[3] = target: T2, human LAIR1 extracellular domain (ECD) …; test: ELISA, LAIR1 ECD coated
Protocol: (§1) The inventors then used a concentration titration (0-10 μg/ml) by ELISA to determine the LAIR1 monoclonal antibody (mAbs) binding to human LAIR1 ECD. […] For FIGS. 2-39, X axis indicates the antibody concentrations and Y-axis is binding signals, measured as OD (450 nm). To perform the ELISA assay, LAIR1 ECD recombinant protein was coated on high absorption 96-well plates. Serial diluted (3-fold) LAIR1 mAb was added to the coated/blocked plates and detected using goat anti-rabbit F(ab′)2 conjugated HRP as secondary antibody. All assays were repeated 3 times and the titration curves were fitted using 4-parameter fitting curve using the GraphPad software for EC₅₀ estimation.
(§2) Serial dilutions of the LAIR1 monoclonal antibodies (IgGs or scFvs fragments), starting from […] and 3-fold titration down for 12 steps, were added to the 96-well plate for binding by incubating 45 minutes at 37° C. with a cover on the assay plate. Then the plates were washed with PBS containing Tween 20 (0.05% concentration) for 3 times and PBS one time. […] Detection was conducted by adding HRP substrate, TMB (ThermoFisher) for 10 minutes, and stopped by adding 50 μl/well of 2N H2504. The plates were read for absorbance at 450 nm using a plate reader (SpectraMax M4, Molecular Devices). Data were collected and graphed using a 4-parameter fitting curve with GrapPad Prism 7 software for EC₅₀ calculation.

[4] = target: T1, LAIR1 on LAIR1 reporter cells; test: cell-based or functional assay
[5] = target: T1, LAIR1 on LAIR1 reporter cells; test: cell-based or functional assay
[6] = target: T1, LAIR1 on LAIR1 reporter cells; test: cell-based or functional assay
[7] = target: T2, human LAIR1 extracellular domain (ECD) …; test: ELISA, LAIR1 ECD coated, mAb titrated, anti-rabbit HRP
Protocol: as §1, §2

[8] = target: T3, recombinant LAIR1; test: BLI (Octet), mAb on protein A sensor, recombinant LAIR1 0.1-200 nM, 1:1 fit
Protocol: To perform the assay, antibody (30 μg/mL) was loaded to the proteins A sensor for 4 min, followed by a short buffering to establish baseline in kinetics buffer. The loaded sensors were then exposed to a series of recombinant LAIR1 concentrations (0.1-200 nM) for kinetic binding detection. Background subtraction was used to correct the sensor drifting. All experiments were performed with shaking at 1,000 rpm. Background wavelength shifts were measured from reference sensors that were loaded only with antibody. ForteBio's data analysis software was used to fit the data to a 1:1 binding model to extract an association rate and dissociation rate. The KD was calculated using the ratio […] using ForteBio's data analysis software 7.0.

| Molecule | GFP+% of LAIR1 reporter cells, collagen I coated, no Ab (row collagen I-ctrl) [1] [%] | GFP+% of LAIR1 reporter cells, K562 coculture, no Ab (row Collagen I-ctrl) [2] [%] | EC50 (read off the curve) [3] [µg/mL] | GFP+% of LAIR1 reporter cells, collagen I coated, soluble Ab [4] [%] | GFP+% of LAIR1 reporter cells, collagen I coated, soluble Ab and K562 cells [5] [%] | GFP+ of LAIR1 reporter cells, Collagen I coated [6] [%] | GFP+ of LAIR1 reporter cells, Collagen I coated + K562 [6] [%] | EC50 [7] [nM] | GFP+ of LAIR1 reporter cells, Abs coated [6] [%] | Kd [8] [nM] | koff [8] [s⁻¹] | kon [8] [M⁻¹ s⁻¹] |
| --- | --- | --- | --- | --- | --- | --- | --- | --- | --- | --- | --- | --- |
| collagen I (ligand) | 31.3 | 42.5 |  |  |  |  |  |  |  |  |  |  |
| LA-121 (antibody, V domains shown, Rabbit monoclonal IgG) VH: EQSVEESGGRLVTPGTPLTLTCTASGFSLYKYNIQWVRQAPGKGLEYIGASTYAGYTYYASWAIGRVTISRTSTTVDLKMTSPTTEDTATYFCARHIDGDYSGYALWGPGTLVTISS VL: ELDLTQTPASVSAAVGGTVTIKCQASQSIDTWFGWYQQKPGQSPKLLIYGASKLASGVPPRFKGSGSGTEFTLTISDLECADAATYYCQNTYYGVRYLGGAFGGGTEVEIK |  |  | ~0.03 | 1.11 | 0.891 |  |  | 0.21 |  | 0.127 | 2.41e-05 | 190000 |
| LA-259-2 (antibody, V domains shown, Rabbit monoclonal IgG) VH: QSVKESGGRLVTPGTPLTLTCTASGFSLYKYNIQWVRQAPGKGLEYIGASTYAGYTYYASWAKGRVTISRTSTTVDLKMTSPTTEDTATYFCARHIDGDYSGYALWGPGTLVTISS VL: ELVMTQTPASVSAAVGGTVTIKCQASQSIGTWFAWYQQKPGQSPKLLIYGPSKLASGVPPRFKGSGSGTEFTLTISDLECDDAATYYCQSNGGSISNGWGSFGGGTEVVVK |  |  | ~0.03 |  |  |  |  | 0.22 |  | 0.196 | 4.23e-05 | 216000 |
| LA-258-2 (antibody, V domains shown, Rabbit monoclonal IgG) VH: QSVKESGGDLVKPEGSLTLTCKASGFSFSNSYYMCWVRQAPGKGLEWIACIYTGSTSGTYYASWVNGRFTISKTPSTTVTLQMTSLTVADTATYFCSRKLTNFNGAYLDLWGPGTLVTISS VL: ELVMTQTPSSVEAAVGGTVTIKCQASQSIYSYLAWYQQKPGQPPKVLIYKASTLASGVPSRFKGSGSGTDFTLTISDLECADAATYYCQANNGGSDNNFGGGTEVEIK |  |  | ~0.05 |  |  |  |  | 0.37 |  | 0.0337 | 8.02e-06 | 238000 |
| LA-258-3 (antibody, V domains shown, Rabbit monoclonal IgG) VH: QSVKESGGDLVKPEGSLTLTCKASGFSFSNSYYMCWVRQAPGKGLEWIACIYTGSTSGTYYASWVNGRFTISKTPSTTVTLQMTSLTVADTATYFCSRKLTNFNGAYLDLWGPGTLVTISS VL: ELVLTQTPASVEAAVGGTVTINCQASQSISNLLAWYQQKPGQPPKVLIYKASTLASGVPSRFKGSGSGTDFTLTISDLECADAATYYCQANNGGSDNNFGGGTEVVVKA |  |  | ~0.05 |  |  |  |  | 0.3 |  | 5.58 | 0.00222 | 397000 |

Further molecules by falling EC50 [7], results first:

| GFP+% of LAIR1 reporter cells, collagen I coated, no Ab (row collagen I-ctrl) [1] [%] | GFP+% of LAIR1 reporter cells, K562 coculture, no Ab (row Collagen I-ctrl) [2] [%] | EC50 (read off the curve) [3] [µg/mL] | GFP+% of LAIR1 reporter cells, collagen I coated, soluble Ab [4] [%] | GFP+% of LAIR1 reporter cells, collagen I coated, soluble Ab and K562 cells [5] [%] | GFP+ of LAIR1 reporter cells, Collagen I coated [6] [%] | GFP+ of LAIR1 reporter cells, Collagen I coated + K562 [6] [%] | EC50 [7] [nM] | GFP+ of LAIR1 reporter cells, Abs coated [6] [%] | Kd [8] [nM] | koff [8] [s⁻¹] | kon [8] [M⁻¹ s⁻¹] | Molecule |
| --- | --- | --- | --- | --- | --- | --- | --- | --- | --- | --- | --- | --- |
|  |  | ~0.02 | 50.4 | 24.6 | > 40 | > 40 | 0.12 | > 40 |  |  |  | LA-94 (antibody, V domains shown, Rabbit monoclonal IgG; Called an agonist antibody; also called mAb LA-94; agonist Ab LA-94) VH: EQSLEESEGRLVTPGTPLTLTCTASGFSLSGYHMSWVRQAPGKGLEYIGYISERGTSYYANWAKGRFTVSKSSSSTVVLSIISPTAEDTATYFCARYGGGDSAFILWGPGTLVTISS VL: ELVMTQTPASVSGPVGGTVTIKCQASHNIDNSLAWYQQKPGQPPKLLIYKASTLASGVSSRFKGSGSGTEYTLTISDLECADAATYFCQGTIGLNSGCAFGGGTEVEIK |
|  |  | ~0.008 | 0.924 | 2.11 | < 5 | < 5 | 0.06 |  |  |  |  | LA-219 (antibody, V domains shown, Rabbit monoclonal IgG; Called a potential antagonist antibody) VH: EQSVESGGGLITPGGTLTLTCTASGFTVTRYYMNWVRQAPGKGLEWIGYIYASSKTYYANWAKGRFTISKTSTTVDLKMTSLTAEDTGTYFCARGGVGNSGLNLDLWGPGTLVTISS VL: ELDMTQTPASVSEPVGGTVTIKCQASQSIGSWLAWYQQKPGQPPKLLIYQASRLASGVSSRFGGSGSGTEFTLTISDLECADAATYYCQQAEYSGDVENTFGGGTEVVVK |
|  |  | ~0.02 | 63.2 | 18.7 | > 40 | > 40 | 0.04 | > 40 |  |  |  | LA-192 (antibody, V domains shown, Rabbit monoclonal IgG; Called an agonist antibody) VH: EQSLEESGGRLVTPGTPLTLTCTASGFSLSSYYMTWVRQAPGKGLEWIGYMHTGGGVVYASWATGRFTISRTSTTVDLKITSPTTEDTATYFCARSHAGYSTINRLDLWGVGTLVTISS VL: ELDLTQTPSSVSAAVGGTVTISCQSSPSVYTNNLSWFQQKPGQPPKLLIYDASKLESGVPSRFRGSGSGTQFTLTISDVQCDDAATYYCAGAYLSDSDTTFGGGTELEIK |
|  |  | ~0.01 | 5.76 | 19 | < 5 |  | 0.03 | > 40 |  |  |  | LA-235 (antibody, V domains shown, Rabbit monoclonal IgG; Called an antagonist antibody) VH: SSSVEESEGRLVTPGTPLTLTCTVSGFSLSSYTMGWVRQAPGEGLEWIGTTSNDGSTYYASWAKGRFTISKTSSTTVDLMMTSLTTEDTATYFCVRGTNIRSLWGPGTLVTISS VL: ELVMTQTPASVEAAVGGTVTIKCQASQSIGSNLAWYQQKPGQPPKLLIYLASALASGVSSRFKGSGSGSDFTLTISDLECADAATYYCQCTYGSSNNNNYGDPFGGGTEVEIK |

— patent US20190338026A1 (University of Texas, published 2019)
